Columns and labels:
Details in all cases: one partner purified
[1] = target: RESTV GP expressed on MDCK SIAT-1 cells (Reston virus, isolate ; …, UniProt Q66799); experiment: immunostaining of cells or tissue
[2] = target: T1, SUDV GP, full-length transmembrane glycoprotein expressed on MDCK SIAT-1 cells (Sudan virus, Gulu 2000 (YP_138523.1), UniProt Q7T9D9); experiment: immunostaining of cells or tissue
T1 construct: source: MDCK SIAT-1 cell line expressing GP (generated previously), on the cell surface

[3] = target: T2, TAFV GP, full-length transmembrane glycoprotein expressed on MDCK SIAT-1 cells (Taï Forest virus (YP_003815426.1), UniProt Q66810); experiment: immunostaining of cells or tissue
[4] = target: T3, BDBV GP, full-length transmembrane glycoprotein expressed on MDCK SIAT-1 cells (Bundibugyo virus, Butalya-811250 …, UniProt B8XCN0); experiment: immunostaining of cells or tissue
[5] = target: T4, EBOV GP (Mayinga), full-length transmembrane glycoprotein expressed on MDCK SIAT-1 cells (Ebola virus, Mayinga (NP_066246.1), UniProt Q05320); experiment: immunoprecipitation
[6] = target: T4, EBOV GP (Mayinga), full-length …; experiment: immunostaining of cells or tissue
[7] = target: T2, TAFV GP, full-length transmembrane …; experiment: immunoprecipitation
[8] = target: T3, BDBV GP, full-length transmembrane …; experiment: immunoprecipitation

Measured: binding result

B1: mAb 11883 (recombinant rabbit IgG) (antibody, V domains shown)
VH: QEQLVESGGGLVQPEGSLTLTCTASGFSFSSNCWRCWVRQAPGKGLEWIACVCAGRSGGTTYYASWAKGRFTISKTSSPTVTLQMTSLTAADTATYFCARAGYDDYGDASFFNLWGPGTLVTVS
VL: AVVLTQTASPVSTPVGGTVTIKCQASQNIYSNLAWYQQKPGQPPKLLIYSASTLASGVPSRFKGSGSGTEYTLTISDLECADAATYYCQRYYYLSGSADNTFGGGTEVVVK
notes: source: HEK293F, transfected, purified (Protein A)
binds: [1] | [2] | [3] | [4] | [5]

B2: mAb 11886 (recombinant rabbit IgG) (antibody, V domains shown)
VH: QSVEESGGRLVTPGTPLTLTCIVSGFSLSNYYMSWVRQVPGKGLEWIGVIGWSGTSSYASWAKGRFTISKTASTTVDLKITSPTTEDTATYFCARVLYIGGGFNYYDAFDPWGPGTLVTVS
VL: DVVMTQTPASVSEPVGGTVTIKCQASQSIGSNLAWYQQKPGQPPKLLIYAASTLASGVPSRFKGSGSGTEFTLTISDLECADAATYYCQCTYYDSSYVYNNFGGGTEVVVK
notes: as for B1
binds: [6] | [1] | [2] | [7] | [8]

Source: PMC13365404 (npj Viruses, 2026)
